Data from US20220213153A1 (University of Washington, published 2022).
Blank lines part the entries; values can stand above or below the binder they belong to.

Key:
D2_Wm-01_truncB = molecular target: T1, D2_Wm-01_truncB; assay: SEC and negative-stain EM of the two-component ring
T1 construct: D2_Wm-01B with one heptad deleted from the homodimer helices; also called component B of D2_Wm-01_trunc; D2-1_trunc
T1 chain: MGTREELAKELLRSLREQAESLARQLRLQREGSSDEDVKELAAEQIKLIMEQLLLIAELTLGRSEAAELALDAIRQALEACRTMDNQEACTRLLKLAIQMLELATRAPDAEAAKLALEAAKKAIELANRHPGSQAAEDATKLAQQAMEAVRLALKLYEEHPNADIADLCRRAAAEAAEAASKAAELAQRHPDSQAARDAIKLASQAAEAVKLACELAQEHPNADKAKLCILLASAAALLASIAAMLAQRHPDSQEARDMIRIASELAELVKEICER

D2_Wm-02B = molecular target: T2, D2_Wm-02B; assay: Ni-NTA pulldown of bicistronically co-expressed components (one His-tagged), SDS-PAGE, SEC, SAXS
T2 construct: De novo designed component of the two-component D2 dihedral ring D2_Wm-02; also called component B of D2_Wm-02; D2-2
T2 chain: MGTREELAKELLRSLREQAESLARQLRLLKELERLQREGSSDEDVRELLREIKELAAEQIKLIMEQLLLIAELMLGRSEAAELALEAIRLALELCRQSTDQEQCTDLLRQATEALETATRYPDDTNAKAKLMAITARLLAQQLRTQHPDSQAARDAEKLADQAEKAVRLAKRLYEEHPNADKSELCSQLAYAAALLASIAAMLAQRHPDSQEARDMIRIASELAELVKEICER

D2_Wm-01B = molecular target: T3, D2_Wm-01B; assay: as above
T3 construct: De novo designed component of the two-component D2 dihedral ring D2_Wm-01; untagged (only one component carries the 6xHis tag); also called component B of D2_Wm-01; D2-1
T3 chain: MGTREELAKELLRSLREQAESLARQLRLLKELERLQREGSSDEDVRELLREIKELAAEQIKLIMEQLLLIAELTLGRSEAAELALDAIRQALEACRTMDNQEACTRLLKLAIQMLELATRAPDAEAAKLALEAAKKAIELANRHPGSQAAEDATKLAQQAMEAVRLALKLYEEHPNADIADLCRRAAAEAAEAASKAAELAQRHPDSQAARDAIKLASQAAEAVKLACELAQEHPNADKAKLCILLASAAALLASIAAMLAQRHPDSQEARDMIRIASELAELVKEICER

- binding result (D2_Wm-01_truncB): binds
B1: D2_Wm-01_truncA (designed binder)
chain: MGTREESLKEQLRSLREQAELAARLLRLQREGSSDEDVKELVAEIIKLIMEQLLLIAEQLLGRSEAAELALRAIRLALELCRQSTDLEECLRLLKTAIKALENALRHPDSTTAKARLMAITARLLAQQLRTQHPDSQAARDAEKLADQAERAVRLATRLYEEHPNAEISEMCSQAAYAAALMASIAAILAQRHPDSQIARDLIRLASELAEMVKRMCERGGSWGLEHHHHHH
notes: D2_Wm-01A with one heptad deleted from the homodimer helices; also called component A of D2_Wm-01_trunc; D2-1_trunc

- binding result (D2_Wm-02B): binds
B2: D2_Wm-02A (designed binder)
chain: MGTREEIIRELARSLAEQAELTARLERSLREQERLQREGSSDEDVRELIREQKELVREILKLIAEQILLIAELLLASTRSEAAELALRAIRNAIEACKNADNEEMCRQLMRMAQNALELATQAPDAEAAKAALRAIDLAVELASRHPGSQAADDALKLAQQAAEAVKLALDLYREHPNADIADLCRKAAKEAAEAASKAAELAQRHPDSQAARDAIKLASQAAEAVKLACELAQEHPNAEIAKMCILAASAAALMASIAAILAQRHPDSQIARDLIRLASELAEMVKRMCERGGSWGLEHHHHHH
notes: De novo designed component of the two-component D2 dihedral ring D2_Wm-02; also called component A of D2_Wm-02; D2-2

- binding result (D2_Wm-01B): binds
B3: D2_Wm-01A (designed binder)
chain: MGTREESLKEQLRSLREQAELAARLLRLLKELERLQREGSSDEDVRELLREIKELVAEIIKLIMEQLLLIAEQLLGRSEAAELALRAIRLALELCRQSTDLEECLRLLKTAIKALENALRHPDSTTAKARLMAITARLLAQQLRTQHPDSQAARDAEKLADQAERAVRLATRLYEEHPNAEISEMCSQAAYAAALMASIAAILAQRHPDSQIARDLIRLASELAEMVKRMCERGGSWGLEHHHHHH
notes: De novo designed component of the two-component D2 dihedral ring D2_Wm-01 (8 chains in all, 2 chains as the asymmetric unit); also called component A of D2_Wm-01; D2-1
